Where no end group is shown, it is not given here. [ ]: non-standard residue; d: D form. Aib = CC(C)(N)C(=O)O
B1: Compound A13 (peptide)
peptide: YSHGTFTSDYSKYLD[Aib]KRAQEFV[Aib]WLEDESGAPPPS-OH
modifications: N-terminus assumed
SMILES: CC(C)C[C@H](NC(=O)[C@H](Cc1ccc(O)cc1)NC(=O)[C@H](CCCCN)NC(=O)[C@H](CO)NC(=O)[C@H](Cc1ccc(O)cc1)NC(=O)[C@H](CC(=O)O)NC(=O)[C@H](CO)NC(=O)[C@@H](NC(=O)[C@H](Cc1ccccc1)NC(=O)[C@@H](NC(=O)CNC(=O)[C@H](Cc1c[nH]cn1)NC(=O)[C@H](CO)NC(=O)[C@@H](N)Cc1ccc(O)cc1)[C@@H](C)O)[C@@H](C)O)C(=O)N[C@@H](CC(=O)O)C(=O)NC(C)(C)C(=O)N[C@@H](CCCCN)C(=O)N[C@@H](CCCNC(=N)N)C(=O)N[C@@H](C)C(=O)N[C@@H](CCC(N)=O)C(=O)N[C@@H](CCC(=O)O)C(=O)N[C@@H](Cc1ccccc1)C(=O)N[C@H](C(=O)NC(C)(C)C(=O)N[C@@H](Cc1c[nH]c2ccccc12)C(=O)N[C@@H](CC(C)C)C(=O)N[C@@H](CCC(=O)O)C(=O)N[C@@H](CC(=O)O)C(=O)N[C@@H](CCC(=O)O)C(=O)N[C@@H](CO)C(=O)NCC(=O)N[C@@H](C)C(=O)N1CCC[C@H]1C(=O)N1CCC[C@H]1C(=O)N1CCC[C@H]1C(=O)N[C@@H](CO)C(=O)O)C(C)C
B2: Compound A10 (peptide)
peptide: YSHGTFTSDYSKYLD[Aib]KRAQEFV[Aib]WLEDEEPSSGAPPPS-OH
modifications: N-terminus assumed
SMILES: CC(C)C[C@H](NC(=O)[C@H](Cc1ccc(O)cc1)NC(=O)[C@H](CCCCN)NC(=O)[C@H](CO)NC(=O)[C@H](Cc1ccc(O)cc1)NC(=O)[C@H](CC(=O)O)NC(=O)[C@H](CO)NC(=O)[C@@H](NC(=O)[C@H](Cc1ccccc1)NC(=O)[C@@H](NC(=O)CNC(=O)[C@H](Cc1c[nH]cn1)NC(=O)[C@H](CO)NC(=O)[C@@H](N)Cc1ccc(O)cc1)[C@@H](C)O)[C@@H](C)O)C(=O)N[C@@H](CC(=O)O)C(=O)NC(C)(C)C(=O)N[C@@H](CCCCN)C(=O)N[C@@H](CCCNC(=N)N)C(=O)N[C@@H](C)C(=O)N[C@@H](CCC(N)=O)C(=O)N[C@@H](CCC(=O)O)C(=O)N[C@@H](Cc1ccccc1)C(=O)N[C@H](C(=O)NC(C)(C)C(=O)N[C@@H](Cc1c[nH]c2ccccc12)C(=O)N[C@@H](CC(C)C)C(=O)N[C@@H](CCC(=O)O)C(=O)N[C@@H](CC(=O)O)C(=O)N[C@@H](CCC(=O)O)C(=O)N[C@@H](CCC(=O)O)C(=O)N1CCC[C@H]1C(=O)N[C@@H](CO)C(=O)N[C@@H](CO)C(=O)NCC(=O)N[C@@H](C)C(=O)N1CCC[C@H]1C(=O)N1CCC[C@H]1C(=O)N1CCC[C@H]1C(=O)N[C@@H](CO)C(=O)O)C(C)C
B3: Compound A14 (peptide)
peptide: YSHGTFTSDYSKYLD[Aib]KRAQEFV[Aib]WLEDESSGAPPPS-OH
modifications: N-terminus assumed
SMILES: CC(C)C[C@H](NC(=O)[C@H](Cc1ccc(O)cc1)NC(=O)[C@H](CCCCN)NC(=O)[C@H](CO)NC(=O)[C@H](Cc1ccc(O)cc1)NC(=O)[C@H](CC(=O)O)NC(=O)[C@H](CO)NC(=O)[C@@H](NC(=O)[C@H](Cc1ccccc1)NC(=O)[C@@H](NC(=O)CNC(=O)[C@H](Cc1c[nH]cn1)NC(=O)[C@H](CO)NC(=O)[C@@H](N)Cc1ccc(O)cc1)[C@@H](C)O)[C@@H](C)O)C(=O)N[C@@H](CC(=O)O)C(=O)NC(C)(C)C(=O)N[C@@H](CCCCN)C(=O)N[C@@H](CCCNC(=N)N)C(=O)N[C@@H](C)C(=O)N[C@@H](CCC(N)=O)C(=O)N[C@@H](CCC(=O)O)C(=O)N[C@@H](Cc1ccccc1)C(=O)N[C@H](C(=O)NC(C)(C)C(=O)N[C@@H](Cc1c[nH]c2ccccc12)C(=O)N[C@@H](CC(C)C)C(=O)N[C@@H](CCC(=O)O)C(=O)N[C@@H](CC(=O)O)C(=O)N[C@@H](CCC(=O)O)C(=O)N[C@@H](CO)C(=O)N[C@@H](CO)C(=O)NCC(=O)N[C@@H](C)C(=O)N1CCC[C@H]1C(=O)N1CCC[C@H]1C(=O)N1CCC[C@H]1C(=O)N[C@@H](CO)C(=O)O)C(C)C
B4: Compound A11 (peptide)
peptide: YSHGTFTSDYSKYLD[Aib]KRAQEFV[Aib]WLEDEEEPSSGAPPPS-OH
modifications: N-terminus assumed
SMILES: CC(C)C[C@H](NC(=O)[C@H](Cc1ccc(O)cc1)NC(=O)[C@H](CCCCN)NC(=O)[C@H](CO)NC(=O)[C@H](Cc1ccc(O)cc1)NC(=O)[C@H](CC(=O)O)NC(=O)[C@H](CO)NC(=O)[C@@H](NC(=O)[C@H](Cc1ccccc1)NC(=O)[C@@H](NC(=O)CNC(=O)[C@H](Cc1c[nH]cn1)NC(=O)[C@H](CO)NC(=O)[C@@H](N)Cc1ccc(O)cc1)[C@@H](C)O)[C@@H](C)O)C(=O)N[C@@H](CC(=O)O)C(=O)NC(C)(C)C(=O)N[C@@H](CCCCN)C(=O)N[C@@H](CCCNC(=N)N)C(=O)N[C@@H](C)C(=O)N[C@@H](CCC(N)=O)C(=O)N[C@@H](CCC(=O)O)C(=O)N[C@@H](Cc1ccccc1)C(=O)N[C@H](C(=O)NC(C)(C)C(=O)N[C@@H](Cc1c[nH]c2ccccc12)C(=O)N[C@@H](CC(C)C)C(=O)N[C@@H](CCC(=O)O)C(=O)N[C@@H](CC(=O)O)C(=O)N[C@@H](CCC(=O)O)C(=O)N[C@@H](CCC(=O)O)C(=O)N[C@@H](CCC(=O)O)C(=O)N1CCC[C@H]1C(=O)N[C@@H](CO)C(=O)N[C@@H](CO)C(=O)NCC(=O)N[C@@H](C)C(=O)N1CCC[C@H]1C(=O)N1CCC[C@H]1C(=O)N1CCC[C@H]1C(=O)N[C@@H](CO)C(=O)O)C(C)C
B5: Compound A8 (peptide)
peptide: YSHGTFTSDYSKYLD[Aib]KRAQEFV[Aib]WLEDEPSSGAPPPS-NH2
modifications: N-terminus assumed
SMILES: CC(C)C[C@H](NC(=O)[C@H](Cc1ccc(O)cc1)NC(=O)[C@H](CCCCN)NC(=O)[C@H](CO)NC(=O)[C@H](Cc1ccc(O)cc1)NC(=O)[C@H](CC(=O)O)NC(=O)[C@H](CO)NC(=O)[C@@H](NC(=O)[C@H](Cc1ccccc1)NC(=O)[C@@H](NC(=O)CNC(=O)[C@H](Cc1c[nH]cn1)NC(=O)[C@H](CO)NC(=O)[C@@H](N)Cc1ccc(O)cc1)[C@@H](C)O)[C@@H](C)O)C(=O)N[C@@H](CC(=O)O)C(=O)NC(C)(C)C(=O)N[C@@H](CCCCN)C(=O)N[C@@H](CCCNC(=N)N)C(=O)N[C@@H](C)C(=O)N[C@@H](CCC(N)=O)C(=O)N[C@@H](CCC(=O)O)C(=O)N[C@@H](Cc1ccccc1)C(=O)N[C@H](C(=O)NC(C)(C)C(=O)N[C@@H](Cc1c[nH]c2ccccc12)C(=O)N[C@@H](CC(C)C)C(=O)N[C@@H](CCC(=O)O)C(=O)N[C@@H](CC(=O)O)C(=O)N[C@@H](CCC(=O)O)C(=O)N1CCC[C@H]1C(=O)N[C@@H](CO)C(=O)N[C@@H](CO)C(=O)NCC(=O)N[C@@H](C)C(=O)N1CCC[C@H]1C(=O)N1CCC[C@H]1C(=O)N1CCC[C@H]1C(=O)N[C@@H](CO)C(N)=O)C(C)C
B6: Compound A9 (peptide)
peptide: YSHGTFTSDYSKYLD[Aib]KRAQEFV[Aib]WLEEEPSSGAPPPS-OH
modifications: N-terminus assumed
SMILES: CC(C)C[C@H](NC(=O)[C@H](Cc1ccc(O)cc1)NC(=O)[C@H](CCCCN)NC(=O)[C@H](CO)NC(=O)[C@H](Cc1ccc(O)cc1)NC(=O)[C@H](CC(=O)O)NC(=O)[C@H](CO)NC(=O)[C@@H](NC(=O)[C@H](Cc1ccccc1)NC(=O)[C@@H](NC(=O)CNC(=O)[C@H](Cc1c[nH]cn1)NC(=O)[C@H](CO)NC(=O)[C@@H](N)Cc1ccc(O)cc1)[C@@H](C)O)[C@@H](C)O)C(=O)N[C@@H](CC(=O)O)C(=O)NC(C)(C)C(=O)N[C@@H](CCCCN)C(=O)N[C@@H](CCCNC(=N)N)C(=O)N[C@@H](C)C(=O)N[C@@H](CCC(N)=O)C(=O)N[C@@H](CCC(=O)O)C(=O)N[C@@H](Cc1ccccc1)C(=O)N[C@H](C(=O)NC(C)(C)C(=O)N[C@@H](Cc1c[nH]c2ccccc12)C(=O)N[C@@H](CC(C)C)C(=O)N[C@@H](CCC(=O)O)C(=O)N[C@@H](CCC(=O)O)C(=O)N[C@@H](CCC(=O)O)C(=O)N1CCC[C@H]1C(=O)N[C@@H](CO)C(=O)N[C@@H](CO)C(=O)NCC(=O)N[C@@H](C)C(=O)N1CCC[C@H]1C(=O)N1CCC[C@H]1C(=O)N1CCC[C@H]1C(=O)N[C@@H](CO)C(=O)O)C(C)C
B7: Compound A12 (peptide)
peptide: YSHGTFTSDYSKYLD[Aib]KRAQEFV[Aib]WLEDEGAPPPS-OH
modifications: N-terminus assumed
SMILES: CC(C)C[C@H](NC(=O)[C@H](Cc1ccc(O)cc1)NC(=O)[C@H](CCCCN)NC(=O)[C@H](CO)NC(=O)[C@H](Cc1ccc(O)cc1)NC(=O)[C@H](CC(=O)O)NC(=O)[C@H](CO)NC(=O)[C@@H](NC(=O)[C@H](Cc1ccccc1)NC(=O)[C@@H](NC(=O)CNC(=O)[C@H](Cc1c[nH]cn1)NC(=O)[C@H](CO)NC(=O)[C@@H](N)Cc1ccc(O)cc1)[C@@H](C)O)[C@@H](C)O)C(=O)N[C@@H](CC(=O)O)C(=O)NC(C)(C)C(=O)N[C@@H](CCCCN)C(=O)N[C@@H](CCCNC(=N)N)C(=O)N[C@@H](C)C(=O)N[C@@H](CCC(N)=O)C(=O)N[C@@H](CCC(=O)O)C(=O)N[C@@H](Cc1ccccc1)C(=O)N[C@H](C(=O)NC(C)(C)C(=O)N[C@@H](Cc1c[nH]c2ccccc12)C(=O)N[C@@H](CC(C)C)C(=O)N[C@@H](CCC(=O)O)C(=O)N[C@@H](CC(=O)O)C(=O)N[C@@H](CCC(=O)O)C(=O)NCC(=O)N[C@@H](C)C(=O)N1CCC[C@H]1C(=O)N1CCC[C@H]1C(=O)N1CCC[C@H]1C(=O)N[C@@H](CO)C(=O)O)C(C)C

biological target: human glucagon receptor (GCGR) (human, UniProt P47871 26-477); assay: cell-based or functional assay

Binder | hGCGR pEC50 (cAMP) [pEC50]
B1 | 12.3
B2 | 11.3
B3 | 12
B4 | 11.2
B5 | 12.3
B6 | 13
B7 | 13.2

biological target: human GLP-1 receptor (GLP-1R) (human, UniProt P43220 24-463); assay: cell-based or functional assay
Sequence (P43220 24-463): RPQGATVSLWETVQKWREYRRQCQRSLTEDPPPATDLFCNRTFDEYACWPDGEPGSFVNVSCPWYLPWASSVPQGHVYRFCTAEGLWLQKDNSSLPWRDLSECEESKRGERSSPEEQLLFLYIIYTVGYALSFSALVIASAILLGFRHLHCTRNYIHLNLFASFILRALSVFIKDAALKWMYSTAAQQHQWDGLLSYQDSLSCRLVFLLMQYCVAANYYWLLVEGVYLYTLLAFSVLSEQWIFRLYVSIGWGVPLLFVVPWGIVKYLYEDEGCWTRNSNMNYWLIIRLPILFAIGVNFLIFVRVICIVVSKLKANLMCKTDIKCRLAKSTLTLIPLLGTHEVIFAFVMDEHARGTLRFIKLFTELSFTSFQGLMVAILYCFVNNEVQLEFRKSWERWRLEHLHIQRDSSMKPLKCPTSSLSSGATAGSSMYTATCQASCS

Binder | hGLP1 pEC50 (cAMP) [pEC50]
B1 | < 9
B2 | < 9
B3 | < 9
B4 | < 9
B5 | < 9
B6 | < 9
B7 | < 9

Reference: patent US20180009871A1 (INTARCIA THERAPEUTICS, published 2018)
